Each sequence was assayed on Escherichia coli TOP10 (assay: shrunken log2 fold change of peptide-encoding DNA abundance (4.5 h post-induction vs induction); higher = less antimicrobial activity (less host growth inhibition)). Settings: time post-induction: 4.5 h; library: site-saturation at positions 5, 18, 19, 20.
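Note: peptides expressed intracellularly from a pBAD plasmid library in pooled LB shake-flask culture, induced with 0.3% L-arabinose, DNA abundance read by NGS, three biological replicates, DESeq2 with apeglm shrinkage.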

Sequence | shrunken log2 fold change
RRIRFRPPRLPRPRPRPDCEPRP | 0.175
RRIRARPPRLPRPRPRPFHYPRP | -0.371
RRIRHRPPRLPRPRPRPGCWPRP | 0.434
RRIRNRPPRLPRPRPRPCHHPRP | -1.21
RRIRKRPPRLPRPRPRPMAKPRP | 0.545
RRIRARPPRLPRPRPRPRPNPRP | 0.493
RRIRLRPPRLPRPRPRPNLSPRP | -0.548
RRIRWRPPRLPRPRPRPFAAPRP | 0.862
RRIRIRPPRLPRPRPRPEGNPRP | 0.0775
RRIRVRPPRLPRPRPRPVTWPRP | -0.14
RRIRMRPPRLPRPRPRPIEMPRP | -0.0608
RRIRVRPPRLPRPRPRPTVYPRP | -0.0885
RRIRKRPPRLPRPRPRPRHHPRP | 0.476
RRIRFRPPRLPRPRPRPPVEPRP | 0.143
RRIRKRPPRLPRPRPRPERAPRP | 0.892
RRIRMRPPRLPRPRPRPSCQPRP | 0.166
RRIRDRPPRLPRPRPRPHQVPRP | -0.00776
RRIRRRPPRLPRPRPRPRHDPRP | 0.0104
RRIRPRPPRLPRPRPRPQFPPRP | 0.0341
RRIRWRPPRLPRPRPRPCTKPRP | 0.311
RRIRIRPPRLPRPRPRPTDMPRP | -0.385
RRIRPRPPRLPRPRPRPNIVPRP | -0.342
RRIRMRPPRLPRPRPRPMHGPRP | -0.0683
RRIRWRPPRLPRPRPRPLHEPRP | 0.148
RRIRYRPPRLPRPRPRPMTEPRP | -0.0202

Sequence | shrunken log2 fold change
RRIRARPPRLPRPRPRPSATPRP | 1.26
RRIRHRPPRLPRPRPRPYGGPRP | -0.91
RRIRGRPPRLPRPRPRPIHWPRP | 0.306
RRIRIRPPRLPRPRPRPAYFPRP | -0.411
RRIRARPPRLPRPRPRPTISPRP | 0.0389
RRIRARPPRLPRPRPRPQSFPRP | -0.121
RRIRARPPRLPRPRPRPNHHPRP | -0.223
RRIRRRPPRLPRPRPRPYDTPRP | 0.0504
RRIRLRPPRLPRPRPRPTQNPRP | 0.404
RRIRIRPPRLPRPRPRPGTRPRP | 0.0641
RRIRDRPPRLPRPRPRPHSSPRP | 0.217
RRIRNRPPRLPRPRPRPIKQPRP | -0.0298
RRIRWRPPRLPRPRPRPMGMPRP | 0.403
RRIRERPPRLPRPRPRPLCWPRP | -0.0772
RRIRERPPRLPRPRPRPESLPRP | 0.0354
RRIRCRPPRLPRPRPRPFTSPRP | -0.152
RRIRHRPPRLPRPRPRPMREPRP | 0.237
RRIRYRPPRLPRPRPRPRCAPRP | -0.199
RRIRSRPPRLPRPRPRPLIMPRP | -0.47
RRIRTRPPRLPRPRPRPVTPPRP | 0.184
RRIRCRPPRLPRPRPRPMCVPRP | -0.185
RRIRARPPRLPRPRPRPFPAPRP | 0.439
RRIRARPPRLPRPRPRPWSMPRP | -0.198
RRIRRRPPRLPRPRPRPPFQPRP | 0.746
RRIRGRPPRLPRPRPRPFEHPRP | 0.212

Sequence | shrunken log2 fold change
RRIRKRPPRLPRPRPRPRRDPRP | 0.491
RRIRRRPPRLPRPRPRPSQHPRP | 0.0591
RRIRNRPPRLPRPRPRPFKGPRP | -0.0902
RRIRRRPPRLPRPRPRPFIGPRP | -0.25
RRIRHRPPRLPRPRPRPKWVPRP | -0.302
RRIRPRPPRLPRPRPRPNHVPRP | -0.532
RRIRKRPPRLPRPRPRPYFVPRP | -0.264
RRIRRRPPRLPRPRPRPKQQPRP | 0.0775
RRIRTRPPRLPRPRPRPKYKPRP | -0.407
RRIRKRPPRLPRPRPRPHFSPRP | -0.0531
RRIRQRPPRLPRPRPRPYLRPRP | -0.176
RRIRHRPPRLPRPRPRPGTKPRP | -0.0254
RRIRDRPPRLPRPRPRPPTGPRP | 0.522
RRIRTRPPRLPRPRPRPTAAPRP | 0.211
RRIRWRPPRLPRPRPRPQYWPRP | -0.184
RRIRARPPRLPRPRPRPLHDPRP | 0.341
RRIRLRPPRLPRPRPRPIDGPRP | -0.0968
RRIRKRPPRLPRPRPRPDGCPRP | 0.14
RRIRDRPPRLPRPRPRPDGWPRP | 0.965
RRIRWRPPRLPRPRPRPMIEPRP | 0.0215
RRIRVRPPRLPRPRPRPHSWPRP | 0.0662
RRIRCRPPRLPRPRPRPDKLPRP | 0.0152
RRIRYRPPRLPRPRPRPTYQPRP | -0.00459
RRIRTRPPRLPRPRPRPKCGPRP | -0.0177
RRIRERPPRLPRPRPRPPNRPRP | -0.289

Sequence | shrunken log2 fold change
RRIRHRPPRLPRPRPRPCKNPRP | -0.444
RRIRERPPRLPRPRPRPMYEPRP | -0.00246
RRIRHRPPRLPRPRPRPEQSPRP | -0.0805
RRIRPRPPRLPRPRPRPQIDPRP | -0.0108
RRIRKRPPRLPRPRPRPPTIPRP | 0.119
RRIRWRPPRLPRPRPRPYDIPRP | -0.00748
RRIRTRPPRLPRPRPRPLHIPRP | 0.0174
RRIRVRPPRLPRPRPRPEVWPRP | 0.405
RRIRPRPPRLPRPRPRPFFMPRP | -0.196
RRIRMRPPRLPRPRPRPVDMPRP | 0.185
RRIRQRPPRLPRPRPRPTIGPRP | 0.0815
RRIRARPPRLPRPRPRPCTAPRP | -0.147
RRIRYRPPRLPRPRPRPTHGPRP | -0.1
RRIRARPPRLPRPRPRPQMFPRP | -0.046
RRIRSRPPRLPRPRPRPFINPRP | -0.639
RRIRSRPPRLPRPRPRPWSIPRP | 0.0338
RRIRQRPPRLPRPRPRPAKQPRP | 0.0569
RRIRHRPPRLPRPRPRPQMDPRP | -0.106
RRIRWRPPRLPRPRPRPINSPRP | -0.498
RRIRHRPPRLPRPRPRPLERPRP | -0.0962
RRIRHRPPRLPRPRPRPNVEPRP | -0.063
RRIRDRPPRLPRPRPRPFSFPRP | -0.763
RRIRHRPPRLPRPRPRPNKHPRP | -0.627
RRIRCRPPRLPRPRPRPRSLPRP | 0.197
RRIRIRPPRLPRPRPRPWRLPRP | -0.0935

Sequence | shrunken log2 fold change
RRIRLRPPRLPRPRPRPTIFPRP | 0.205
RRIRARPPRLPRPRPRPCHQPRP | -0.34
RRIRNRPPRLPRPRPRPILHPRP | -0.684
RRIRQRPPRLPRPRPRPPNCPRP | 0.0242
RRIRERPPRLPRPRPRPDGIPRP | -0.00168
RRIRDRPPRLPRPRPRPGPNPRP | 0.0518
RRIRLRPPRLPRPRPRPFRMPRP | -0.0132
RRIRWRPPRLPRPRPRPKAHPRP | 0.197
RRIRNRPPRLPRPRPRPHSEPRP | -0.438
RRIRARPPRLPRPRPRPRLQPRP | 0.637
RRIRVRPPRLPRPRPRPMYAPRP | -0.17
RRIRTRPPRLPRPRPRPFELPRP | -0.0363
RRIRIRPPRLPRPRPRPQLSPRP | -0.565
RRIRTRPPRLPRPRPRPPFGPRP | 0.0407
RRIRMRPPRLPRPRPRPMDSPRP | 0.0342
RRIRTRPPRLPRPRPRPQNTPRP | -0.622
RRIRTRPPRLPRPRPRPVTFPRP | -0.0266
RRIRMRPPRLPRPRPRPAWHPRP | 0.726
RRIRCRPPRLPRPRPRPIYQPRP | -0.306
RRIRPRPPRLPRPRPRPEESPRP | -0.0202
RRIRYRPPRLPRPRPRPVLPPRP | -0.511
RRIRGRPPRLPRPRPRPKRTPRP | 1.01
RRIRERPPRLPRPRPRPSRKPRP | 0.113
RRIRKRPPRLPRPRPRPTLYPRP | 0.0394
RRIRGRPPRLPRPRPRPQALPRP | 0.135

Sequence | shrunken log2 fold change
RRIRRRPPRLPRPRPRPKVVPRP | 0.0343
RRIRQRPPRLPRPRPRPQGAPRP | -0.0289
RRIRLRPPRLPRPRPRPTQTPRP | -0.0101
RRIRKRPPRLPRPRPRPMQNPRP | 0.282
RRIRARPPRLPRPRPRPYGMPRP | -0.684
RRIRERPPRLPRPRPRPLGNPRP | -0.477
RRIRPRPPRLPRPRPRPISHPRP | -0.118
RRIRKRPPRLPRPRPRPWHCPRP | 0.0258
RRIRLRPPRLPRPRPRPEPLPRP | 0.0706
RRIRWRPPRLPRPRPRPNNFPRP | -0.0323
RRIRIRPPRLPRPRPRPSNSPRP | -1.13
RRIRKRPPRLPRPRPRPLSTPRP | 0.025
RRIRGRPPRLPRPRPRPDRVPRP | 0.311
RRIRVRPPRLPRPRPRPGLDPRP | 0.0777
RRIRERPPRLPRPRPRPNSPPRP | -0.00647
RRIRPRPPRLPRPRPRPPRCPRP | 0.408
RRIRFRPPRLPRPRPRPVEFPRP | -0.591
RRIRGRPPRLPRPRPRPESTPRP | 1.63
RRIRDRPPRLPRPRPRPLRFPRP | 0.61
RRIRFRPPRLPRPRPRPHVYPRP | -0.0438
RRIRRRPPRLPRPRPRPPTNPRP | 0.643
RRIRRRPPRLPRPRPRPQDDPRP | -0.0295
RRIRCRPPRLPRPRPRPLMVPRP | -0.519
RRIRFRPPRLPRPRPRPAHPPRP | 0.267
RRIRTRPPRLPRPRPRPYTHPRP | -0.338
